Results: ChEMBL document CHEMBL3769311, “The natural flavone fukugetin as a mixed-type inhibitor for human tissue kallikreins” (Bioorg Med Chem Lett, 2016)
Activity calls are given as the source filed them. The rule behind the calls is not given here.

Tests used:
[1] = molecular target: Kallikrein-1 (Homo sapiens) (UniProt P06870); conditions: 2 to 10 uM
[2] = system: O=C1CC(c2ccc(O)c(O)c2)Oc2c1c(O)cc(O)c2[C@@H]1C(=O)c2c(O)cc(O)cc2O[C@H]1c1ccc(O)cc1; conditions: Homo sapiens; 10 uM
Description: Mixed-type inhibition of human tissue kallikrein-1 expressed in baculovirus infected insect cells using Abz-KLRSSQ-EDDnp as substrate assessed as substrate Km at 10 uM by Lineweaver-Burk plot analysis

[3] = system: O=C1CC(c2ccc(O)c(O)c2)Oc2c1c(O)cc(O)c2[C@@H]1C(=O)c2c(O)cc(O)cc2O[C@H]1c1ccc(O)cc1; conditions: Homo sapiens; 8 uM
Description: Mixed-type inhibition of human tissue kallikrein-1 expressed in baculovirus infected insect cells using Abz-KLRSSQ-EDDnp as substrate assessed as substrate Km at 8 uM by Lineweaver-Burk plot analysis

[4] = system: O=C1CC(c2ccc(O)c(O)c2)Oc2c1c(O)cc(O)c2[C@@H]1C(=O)c2c(O)cc(O)cc2O[C@H]1c1ccc(O)cc1; conditions: Homo sapiens; 2 uM
Description: Mixed-type inhibition of human tissue kallikrein-1 expressed in baculovirus infected insect cells using Abz-KLRSSQ-EDDnp as substrate assessed as substrate Km at 2 uM by Lineweaver-Burk plot analysis

[5] = system: O=C1CC(c2ccc(O)c(O)c2)Oc2c1c(O)cc(O)c2[C@@H]1C(=O)c2c(O)cc(O)cc2O[C@H]1c1ccc(O)cc1; conditions: Homo sapiens; 8 uM; remark: listed apart in the source
Description: Mixed-type inhibition of human tissue kallikrein-1 expressed in baculovirus infected insect cells using Abz-KLRSSQ-EDDnp as substrate assessed as enzyme Vmax at 8 uM by Lineweaver-Burk plot analysis

[6] = system: O=C1CC(c2ccc(O)c(O)c2)Oc2c1c(O)cc(O)c2[C@@H]1C(=O)c2c(O)cc(O)cc2O[C@H]1c1ccc(O)cc1; conditions: Homo sapiens; 10 uM; remark: listed apart in the source
Description: Mixed-type inhibition of human tissue kallikrein-1 expressed in baculovirus infected insect cells using Abz-KLRSSQ-EDDnp as substrate assessed as enzyme Vmax at 10 uM by Lineweaver-Burk plot analysis

[7] = system: O=C1CC(c2ccc(O)c(O)c2)Oc2c1c(O)cc(O)c2[C@@H]1C(=O)c2c(O)cc(O)cc2O[C@H]1c1ccc(O)cc1; conditions: Homo sapiens; 4 uM
Description: Mixed-type inhibition of human tissue kallikrein-1 expressed in baculovirus infected insect cells using Abz-KLRSSQ-EDDnp as substrate assessed as enzyme Vmax at 4 uM by Lineweaver-Burk plot analysis

[8] = system: O=C1CC(c2ccc(O)c(O)c2)Oc2c1c(O)cc(O)c2[C@@H]1C(=O)c2c(O)cc(O)cc2O[C@H]1c1ccc(O)cc1; conditions: Homo sapiens; 4 uM; remark: listed apart in the source
Description: Mixed-type inhibition of human tissue kallikrein-1 expressed in baculovirus infected insect cells using Abz-KLRSSQ-EDDnp as substrate assessed as substrate Km at 4 uM by Lineweaver-Burk plot analysis

[9] = system: O=C1CC(c2ccc(O)c(O)c2)Oc2c1c(O)cc(O)c2[C@@H]1C(=O)c2c(O)cc(O)cc2O[C@H]1c1ccc(O)cc1; conditions: Homo sapiens; 2 uM; remark: listed apart in the source
Description: Mixed-type inhibition of human tissue kallikrein-1 expressed in baculovirus infected insect cells using Abz-KLRSSQ-EDDnp as substrate assessed as enzyme Vmax at 2 uM by Lineweaver-Burk plot analysis

| inhibition [1] | Compound | Km [2] | Km [3] | Km [4] | Vmax [5] | Vmax [6] | Vmax [7] | Km [8] | Vmax [9] |
| --- | --- | --- | --- | --- | --- | --- | --- | --- | --- |
| Active | O=C1CC(c2ccc(O)c(O)c2)Oc2c1c(O)cc(O)c2[C@@H]1C(=O)c2c(O)cc(O)cc2O[C@H]1c1ccc(O)cc1 (some centres undefined) | – | – | – | – | – | – | – | – |
| – | Kallikrein-1 (Homo sapiens), P06870 | 1.12 µM | 0.93 µM | 0.8 µM | 201 µM/s | 160 µM/s | 285 µM/s | 0.85 µM | 387 µM/s |
